Assay [1] concerns Vγ9Vδ2-T cells present in the bone marrow of MM patients. The assay can be described thus: Activation of Vγ9Vδ2-T cells in bone marrow mononuclear cells from MM patients. The assay is classed as cell-based, human. The note with it: 10 nM, overnight. The method, then: FIG. 17: V19S76K-5C8 is active against primary multiple myeloma. (A) Example of CD40 expression on primary MM cells, as detected using anti-CD40 PE antibody, clone MAB89, Beckman Couter, IM1936U. Representative histograms of 4 donors (B) Bone marrow of MM patients was cultured overnight in the presence or absence of healthy donor-derived Vγ9Vδ2-T cells in a 1:1 (Vγ9Vδ2-T:plasma cell) ratio in the absence or presence of V19S76K-5C8 (10 μM or 10 nM). Live plasma cells were quantified by flow cytometry using counting beads (n=5). (C, D) Mononuclear cells from the bone marrow of MM patients were cultured overnight with V19S76K-5C8 (VHH; 10 nM), aminobisphosphonate (ABP; 10 μM zoledronic acid (positive control)) or medium control in the presence of brefeldin, monensin and anti-CD107a to measure (C) cytokine production and (D) degranulation by flow cytometry (n=6). Data are presented as mean and SEM. *P<0.05, **P<0.01. (B-D: repeated-measures one-way ANOVA followed by Dunnett's post hoc test compared to condition without antibody).
Similarly, Vγ9Vδ2-T cells present in bone marrow mononuclear cells from MM patients degranulated after culture with the bispecific VHH V19S76K-5C8 (FIG. 17D).

Assay [2] deals with CD19+ CLL cells. Kind of assay: Cytotoxicity of CLL cells by autologous CD3+ cells, live cell count with counting beads. To be noted: 10 nM, overnight, CD3+:CD19+ 10:1, autologous; FIG. 16. In kind it is cell-based, human. How it is done:
PBMCs from CLL patients were obtained, cryopreserved and thawed as described in Example 3.
CD3^+ cells were isolated from CLL PBMCs using magnetic beads (purity ≥93%; 130-050-101, Miltenyi Biotec) to simultaneously enrich for Vγ9Vδ2-T cells. CD19^+ CLL cells were isolated from the same sample using magnetic beads (purity ≥93%; 130-050-301, Miltenyi Biotec). CD3^+ cells were cultured overnight with CD19^+ CLL cells in a 10:1 ratio with V19S76K-5C8 (10 nM) or medium control.
Samples were incubated with Fixable Viability Dye eF780 (65-0865-14), PerCPeF710-conjugated anti-CD3), PE-conjugated anti-CD5 (12-0059-42, all Thermo Fisher Scientific) and FITC-conjugated anti-CD20 (A07772, Beckman Coulter) antibodies. Live CLL cells were then quantified using counting beads (01-1234-42, Thermo Fisher Scientific) on a FACSCanto cytometer (BD Biosciences).

B1: V19S76K-5C8: tag-less bispecific anti-CD40-anti-Vγ9Vδ2-TCR VHH, SEQ ID NO:23 (protein)
VHH: QVQLQESGGGLVQAGGSLRLSCAASGRTFGRSAMGWFRQAPGKEREFVAAIGTRGGSTKYADSVKGRFTISTDNAKNTVYLQMDSLKPEDTAVYRCAVRGPGYPSAAIFQDEYHYWGQGTQVTVSSGGGGSEVQLVESGGGLVQAGGSLRLSCAASGRPFSNYAMGWFRQAPGKEREFVAAISWSGGSTSYADSVKGRFTISRDNAKNTVYLQMNSPKPEDTAIYYCAAQFSGADYGFGRLGIRGYEYDYWGQGTQVTVSS
modifications: antibody sequence
As to B1, in assay [1] (FIG. 17C), the “production of IFN-γ and TNF-α by bone marrow Vγ9Vδ2-T cells” value was “triggered to produce the pro-inflammatory cytokines IFN-γ and TNF-α”. In addition, the “degranulation of bone marrow Vγ9Vδ2-T cells” value in assay [1] (FIG. 17D) was “degranulated”. The “live CLL cells versus medium control” value in assay [2] is recorded as “Fewer CLL cells were alive”.
